From paper PMC7375243, “Structural Basis of Human Helicase DDX21 in RNA Binding, Unwinding, and Antiviral Signal Activation” (Advanced Science, 2020)
Positions count from the first letter of the chain named.

Key:
Details in all cases: protein: recombinant; tags: N-terminal His-SUMO, removed by ULP1; label: FAM; single strand
[1] = target: T1, DDX21 core 8A (human, UniProt Q9NR30 188-563, R255A;R270A;T315A;R318A;D321A;Q352A;R476A;T494A); experiment: UV crosslinking; comparable to WT; MST: 50 mM Tris pH 7.5, 50 mM KCl, 2 mM MgCl2, 1 mM TCEP, 0.01% NP-40, 0.05 mg/mL BSA, 2 mM AMPPNP, 50 nM FAM-RNA; temperature not given; crosslinking buffer not in material
T1 sequence: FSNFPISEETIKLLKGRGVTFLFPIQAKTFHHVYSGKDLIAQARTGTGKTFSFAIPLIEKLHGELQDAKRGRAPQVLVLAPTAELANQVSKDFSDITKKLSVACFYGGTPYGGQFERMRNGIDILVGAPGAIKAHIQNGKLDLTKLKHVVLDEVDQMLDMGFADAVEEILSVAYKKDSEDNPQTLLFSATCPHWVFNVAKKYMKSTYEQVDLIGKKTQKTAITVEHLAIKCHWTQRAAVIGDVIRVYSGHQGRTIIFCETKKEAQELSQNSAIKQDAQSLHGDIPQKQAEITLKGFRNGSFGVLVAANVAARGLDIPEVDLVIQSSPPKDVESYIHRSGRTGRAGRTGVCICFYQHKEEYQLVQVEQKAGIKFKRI

[2] = target: T2, DDX21 core 7A (human, UniProt Q9NR30 188-563, R270A;T315A;R318A;D321A;Q352A;R476A;T494A); experiment: as above
T2 sequence: T1 sequence with A68R

[3] = target: T3, DDX21 helicase core (D1D2, DDX21-delNC) (human, UniProt Q9NR30 188-563); experiment: MST; 2 mM AMPPNP, 2 mM MgCl2; value only in figure; MST: 50 mM Tris pH 7.5, 50 mM KCl, 2 mM MgCl2, 1 mM TCEP, 0.01% NP-40, 0.05 mg/mL BSA, 2 mM AMPPNP, 50 nM FAM-RNA; temperature not given; crosslinking buffer not in material
T3 sequence: T1 sequence with A68R, A83R, A128T, A131R, A134D, A165Q, A289R, A307T

[4] = target: T4, DDX21 core 4R to A (human, UniProt Q9NR30 188-563, R255A;R270A;R318A;R476A); experiment: UV crosslinking; reduced by more than half; MST: 50 mM Tris pH 7.5, 50 mM KCl, 2 mM MgCl2, 1 mM TCEP, 0.01% NP-40, 0.05 mg/mL BSA, 2 mM AMPPNP, 50 nM FAM-RNA; temperature not given; crosslinking buffer not in material
T4 sequence: T1 sequence with A128T, A134D, A165Q, A307T

[5] = target: T5, DDX21 core 3R to A (human, UniProt Q9NR30 188-563, R270A;R318A;R476A); experiment: as above
T5 sequence: T1 sequence with A68R, A128T, A134D, A165Q, A307T

UUUUUUUUUUUUUUU (ssRNA) [FAM-U15]: binds [1]; binds [2]; binds [3]. For the same binder, the binding signal [4] was < 50 % of WT and the binding signal [5] was < 50 % of WT.
